Tests used:
Test in all cases: FRET or BRET
[1] = biological target: wild-type FUS tagged with mVenus-mCherry at the C terminus (FUS-VC) (UniProt P35637)
[2] = biological target: mutant Huntingtin exon1 with 39 glutamines, fused to mVenus-mCherry (Q39-VC)
[3] = biological target: mutant Huntingtin exon1 with 54 glutamines, fused to mVenus-mCherry (Q54-VC)
[4] = biological target: mutant Huntingtin exon1 (mHttex1) with a polyglutamine stretch of Q71, fused to mVenus-mCherry (Q71-VC)
FRET or BRET = biological target: the molecule itself

wild-type FUS tagged with mVenus-mCherry at the C terminus (FUS-VC) (from UniProt P35637 1-526) (natural protein)
increase of FRET/donor ratio in foci over the dispersed state [1]: 0.06

mutant Huntingtin exon1 with 39 glutamines, fused to mVenus-mCherry (Q39-VC) (domain or fragment)
FRET/donor ratio of the final foci [2]: 1.6

mutant Huntingtin exon1 with 54 glutamines, fused to mVenus-mCherry (Q54-VC) (domain or fragment)
FRET/donor ratio of the final foci [3]: 1.53

mutant Huntingtin exon1 (mHttex1) with a polyglutamine stretch of Q71, fused to mVenus-mCherry (Q71-VC) (domain or fragment)
FRET/donor ratio in foci [4]: 1.3 to 1.4 | FRET/donor ratio of the final foci [4]: 1.48

B1: FUS R521C tagged with mVenus-mCherry at the N terminus (VC-FUS_(R521C)) (natural protein)
chain: MASNDYTQQATQSYGAYPTQPGQGYSQQSSQPYGQQSYSGYSQSTDTSGYGQSSYSSYGQSQNTGYGTQSTPQGYGSTGGYGSSQSSQSSYGQQSSYPGYGQQPAPSSTSGSYGSSSQSSSYGQPQSGSYSQQPSYGGQQQSYGQQQSYNPPQGYGQQNQYNSSSGGGGGGGGGGNYGQDQSSMSSGGGSGGGYGNQDQSGGGGSGGYGQQDRGGRGRGGSGGGGGGGGGGYNRSSGGYEPRGRGGGRGGRGGMGGSDRGGFNKFGGPRDQGSRHDSEQDNSDNNTIFVQGLGENVTIESVADYFKQIGIIKTNKKTGQPMINLYTDRETGKLKGEATVSFDDPPSAKAAIDWFDGKEFSGNPIKVSFATRRADFNRGGGNGRGGRGRGGPMGRGGYGGGGSGGGGRGGFPSGGGGGGGQQRAGDWKCPNPTCENMNFSWRNECNQCKAPKPDGPGGGPGGSHMGGNYGDDRRGGRGGYDRGGYRGRGGDRGGFRGGRGGGDRGGFGPGKMDSRGEHRQDCRERPY
increase of FRET/donor ratio in foci over the dispersed state (FRET or BRET): 0.15

Reference: article PMC8960284 (Cell Reports Methods, 2022)
